Each block holds one sequence with its values, some of them ahead of it.
What was measured:
HLA-A*01:01 [1] = test: IEDB peptide-MHC binding, purified MHC/competitive/fluorescence; filed as Kd, often an IC50 or EC50 that approximates it; ≥ and ≤ were set here for values at or beyond the usual limits of such assays
HLA-A*11:01 [2] = test: IEDB peptide-MHC binding, purified MHC/competitive/fluorescence; ≥ and ≤ were set here for values at or beyond the usual limits of such assays
HLA-A*03:01 [3] = test: as above
HLA-A*11:01 [4] = test: IEDB peptide-MHC binding, purified MHC/competitive/fluorescence; filed as Kd, often an IC50 or EC50 that approximates it; ≥ and ≤ were set here for values at or beyond the usual limits of such assays
HLA-A*31:01 [5] = test: as above; settings: source organism: Encephalitozoon cuniculi GB-M1
HLA-A*03:01 [6] = test: as above; settings: source organism: Encephalitozoon cuniculi GB-M1
HLA-A*26:01 [7] = test: IEDB peptide-MHC binding, purified MHC/direct/fluorescence; filed as Kd, often an IC50 or EC50 that approximates it; ≥ and ≤ were set here for values at or beyond the usual limits of such assays
HLA-B*27:05 = test: as above; settings: source organism: Yersinia pestis Nepal516
HLA-A*11:01 [8] = test: as above; settings: source organism: Yersinia pestis Nepal516
HLA-B*44:02 = test: as above; settings: source organism: Yersinia pestis Nepal516
HLA-A*31:01 [9] = test: as above; settings: source organism: Yersinia pestis Nepal516
HLA-B*15:01 [10] = test: as above
HLA-B*08:01 = test: as above; settings: source organism: Yersinia pestis Nepal516
HLA-B*35:01 = test: as above
HLA-A*24:03 [11] = test: as above
HLA-A*69:01 [12] = test: as above; settings: source organism: Yersinia pestis Nepal516
HLA-A*03:01 [13] = test: as above
HLA-A*02:01 [14] = test: as above; settings: source organism: Yersinia pestis
HLA-B*40:01 = test: as above; settings: source organism: Yersinia pestis Nepal516
HLA-A*01:01 [15] = test: as above; settings: source organism: Yersinia pestis Nepal516
HLA-B*07:02 = test: as above; settings: source organism: Yersinia pestis Nepal516
HLA-B*58:01 = test: as above; settings: source organism: Yersinia pestis Nepal516
HLA-A*26:01 [16] = test: IEDB peptide-MHC binding, purified MHC/competitive/fluorescence; filed as Kd, often an IC50 or EC50 that approximates it; ≥ and ≤ were set here for values at or beyond the usual limits of such assays
HLA-A*02:11 = test: IEDB peptide-MHC binding, purified MHC/direct/fluorescence; filed as Kd, often an IC50 or EC50 that approximates it; ≥ and ≤ were set here for values at or beyond the usual limits of such assays
HLA-A*02:16 = test: as above
HLA-A*02:03 = test: as above
HLA-A*68:02 = test: as above
HLA-A*02:12 = test: as above
HLA-A*02:19 = test: as above
HLA-B*15:17 = test: IEDB peptide-MHC binding, purified MHC/competitive/fluorescence; filed as Kd, often an IC50 or EC50 that approximates it; ≥ and ≤ were set here for values at or beyond the usual limits of such assays
HLA-B*46:01 = test: as above
HLA-B*57:01 = test: as above
HLA-B*18:01 = test: as above
HLA-A*69:01 [17] = test: as above
HLA-A*02:01 [18] = test: as above
HLA-B*51:01 [19] = test: as above
HLA-B*27:03 = test: as above
HLA-B*39:01 = test: as above
HLA-A*29:02 = test: IEDB peptide-MHC binding, purified MHC/direct/fluorescence; filed as Kd, often an IC50 or EC50 that approximates it; ≥ and ≤ were set here for values at or beyond the usual limits of such assays
HLA-A*24:03 [20] = test: IEDB peptide-MHC binding, purified MHC/competitive/fluorescence; filed as Kd, often an IC50 or EC50 that approximates it; ≥ and ≤ were set here for values at or beyond the usual limits of such assays; settings: source organism: Lechiguanas virus
HLA-A*02:01 [21] = test: IEDB peptide-MHC binding, purified MHC/competitive/fluorescence; ≥ and ≤ were set here for values at or beyond the usual limits of such assays
HLA-B*51:01 [22] = test: IEDB peptide-MHC binding, purified MHC/direct/fluorescence; filed as Kd, often an IC50 or EC50 that approximates it; ≥ and ≤ were set here for values at or beyond the usual limits of such assays; settings: source organism: West Nile virus
HLA-B*15:01 [23] = test: IEDB peptide-MHC binding, purified MHC/competitive/fluorescence; ≥ and ≤ were set here for values at or beyond the usual limits of such assays; settings: source organism: Sudan ebolavirus
[24] = source organism: Zaire ebolavirus
[25] = source organism: Vaccinia virus WR
[26] = source organism: Sudan ebolavirus
[27] = source organism: Yersinia pestis Nepal516
[28] = source organism: Yersinia pestis
[29] = source organism: Salmonella enterica subsp. enterica serovar Typhi
[30] = source organism: Araucaria virus
[31] = source organism: Rio Mamore hantavirus
[32] = source organism: Lechiguanas virus
[33] = source organism: Vaccinia virus
[34] = source organism: New York virus

Kd (HLA-A*01:01 [1]; source organism: Homo sapiens): ≥ 20 µM
Sequence: SMIYFFHHY

Sequence: TQVEQHHRR
IC50 (HLA-A*11:01 [2]; [24]): 1.67 µM | IC50 (HLA-A*03:01 [3]; [24]): ≥ 138 µM

Sequence: AFYTRVLKP
IC50 (HLA-A*11:01 [2]; [25]): 24.2 µM | IC50 (HLA-A*03:01 [3]; [25]): ≥ 202 µM

Kd (HLA-A*11:01 [4]; source organism: Encephalitozoon cuniculi GB-M1): 110 nM | Kd (HLA-A*31:01 [5]): 692 nM | Kd (HLA-A*03:01 [6]): 1010 nM
Sequence: CVNDGGLFY

Sequence: GVRGFPRCR
IC50 (HLA-A*11:01 [2]; [26]): 33.2 µM | IC50 (HLA-A*03:01 [3]; [26]): 1.12 µM

Sequence: YLHRDIFDI
Kd (HLA-A*26:01 [7]; [27]): ≥ 20000 nM | Kd (HLA-B*27:05): ≥ 20 µM | Kd (HLA-A*11:01 [8]): ≥ 20 µM | Kd (HLA-B*44:02): ≥ 20 µM | Kd (HLA-A*31:01 [9]): ≥ 20 µM | Kd (HLA-B*15:01 [10]; [28]): 8.64 µM | Kd (HLA-B*08:01): ≥ 20 µM | Kd (HLA-B*35:01; [28]): 113 nM | Kd (HLA-A*24:03 [11]; [28]): ≥ 20 µM | Kd (HLA-A*69:01 [12]): ≥ 20 µM | Kd (HLA-A*03:01 [13]; [27]): ≥ 20 µM | Kd (HLA-A*02:01 [14]): 36.5 nM | Kd (HLA-B*40:01): ≥ 20 µM | Kd (HLA-A*01:01 [15]): ≥ 20 µM | Kd (HLA-B*07:02): ≥ 20 µM | Kd (HLA-B*58:01): ≥ 20 µM

Sequence: AGLITGGRR
IC50 (HLA-A*11:01 [2]; [24]): 6.55 µM | IC50 (HLA-A*03:01 [3]; [24]): 69.9 µM

Sequence: ITDRLFFK
Kd (HLA-A*11:01 [4]; source organism: Influenza A virus (A/California/04/2009(H1N1))): 175 nM

Sequence: MVEASGGRY
Kd (HLA-A*26:01 [16]; [29]): 1420 nM | Kd (HLA-A*01:01 [1]; [29]): 0.122 µM

Sequence: AFMATNKAY
Kd (HLA-A*02:11; [30]): ≥ 20 µM | Kd (HLA-B*15:01 [10]; source organism: Itapua hantavirus): 0.0944 µM | Kd (HLA-A*02:16; [30]): ≥ 20 µM | Kd (HLA-A*24:03 [11]; [30]): ≥ 20 µM | Kd (HLA-A*02:03; [30]): ≥ 20 µM | Kd (HLA-A*03:01 [13]; [30]): ≥ 20 µM | Kd (HLA-A*68:02; [30]): ≥ 20 µM | Kd (HLA-A*02:12; [30]): ≥ 20 µM | Kd (HLA-A*02:19; [30]): ≥ 20 µM | Kd (HLA-B*15:17; [30]): ≥ 20 µM | Kd (HLA-B*46:01; [30]): ≥ 20 µM | Kd (HLA-B*57:01; [30]): ≥ 20 µM | Kd (HLA-B*18:01; [30]): ≥ 20 µM | Kd (HLA-A*69:01 [17]; [30]): ≥ 20 µM | Kd (HLA-A*02:01 [18]; [30]): ≥ 20 µM | Kd (HLA-B*51:01 [19]; [30]): ≥ 20 µM | Kd (HLA-B*27:03; [30]): ≥ 20 µM | Kd (HLA-B*39:01; [30]): ≥ 20 µM

Sequence: LQPSDTLLF
Kd (HLA-A*02:11; [31]): ≥ 20 µM | Kd (HLA-A*02:16; [31]): ≥ 20 µM | Kd (HLA-A*02:03; [31]): ≥ 20 µM | Kd (HLA-A*03:01 [13]; [31]): ≥ 20 µM | Kd (HLA-A*68:02; [31]): ≥ 20 µM | Kd (HLA-A*02:12; [31]): ≥ 20 µM | Kd (HLA-A*02:19; [31]): ≥ 20 µM | Kd (HLA-A*29:02; [31]): ≥ 20 µM | Kd (HLA-A*26:01 [16]; [32]): ≥ 20000 nM | Kd (HLA-B*15:17; [32]): ≥ 20 µM | Kd (HLA-B*46:01; [32]): ≥ 20 µM | Kd (HLA-B*57:01; [32]): ≥ 20 µM | Kd (HLA-B*18:01; [32]): ≥ 20 µM | Kd (HLA-A*24:03 [20]): 4.9 nM | Kd (HLA-A*69:01 [17]; [32]): ≥ 20 µM | Kd (HLA-A*02:01 [18]; [32]): ≥ 20 µM | Kd (HLA-B*51:01 [19]; [32]): ≥ 20 µM | Kd (HLA-B*27:03; [32]): ≥ 20 µM | Kd (HLA-B*39:01; [32]): ≥ 20 µM

Sequence: SLMEMDYER
IC50 (HLA-A*11:01 [2]; [33]): 1.9 µM | IC50 (HLA-A*03:01 [3]; [33]): ≥ 155 µM | IC50 (HLA-A*02:01 [21]; [33]): 2.2 µM

Sequence: FVKDWMDRI
Kd (HLA-A*26:01 [7]; source organism: Hantavirus Monongahela-3): 65.6 nM | Kd (HLA-A*02:16; source organism: Choclo virus): ≥ 20 µM | Kd (HLA-A*24:03 [11]; source organism: Choclo virus): ≥ 20 µM | Kd (HLA-A*03:01 [13]; source organism: Choclo virus): ≥ 20 µM | Kd (HLA-A*02:12; source organism: Choclo virus): ≥ 20 µM | Kd (HLA-A*02:19; source organism: Choclo virus): ≥ 20 µM | Kd (HLA-A*29:02; source organism: Choclo virus): ≥ 20 µM | Kd (HLA-B*15:17; [34]): ≥ 20 µM | Kd (HLA-B*46:01; [34]): ≥ 20 µM | Kd (HLA-B*57:01; [34]): ≥ 20 µM | Kd (HLA-B*18:01; [34]): ≥ 20 µM | Kd (HLA-A*69:01 [17]; [34]): ≥ 20 µM | Kd (HLA-A*02:01 [18]; [34]): ≥ 20 µM | Kd (HLA-B*51:01 [19]; [34]): ≥ 20 µM | Kd (HLA-B*27:03; [34]): ≥ 20 µM | Kd (HLA-B*39:01; [34]): ≥ 20 µM

Kd (HLA-A*01:01 [1]; source organism: Escherichia coli O139:H28 str. E24377A): ≥ 20 µM
Sequence: FTDPEIVAE

Sequence: QPAFMVASF
Kd (HLA-B*35:01; source organism: West Nile virus): 7 nM | Kd (HLA-B*51:01 [22]): ≥ 20 µM

Kd (HLA-A*11:01 [4]; source organism: Paramagnetospirillum magnetotacticum MS-1): 3250 nM
Sequence: MVAYMLER

Sequence: VIYRGVNFA
IC50 (HLA-A*11:01 [2]; [26]): 25.1 µM | IC50 (HLA-B*15:01 [23]): ≥ 89.1 µM | IC50 (HLA-A*03:01 [3]; [26]): 5.02 µM | IC50 (HLA-A*02:01 [21]; [26]): 3.89 µM

Reference: the Immune Epitope Database (IEDB)
